Consider 4 substances from article PMC9186069.

The target in experiment [1] is serum C1r (human (endogenous in normal human serum)).
Experiment [2] concerns the target MBP-FbpA-N (Borrelia miyamotoi strain FR64b). Description: SPR; MBP-Fbp-N fusion proteins immobilised by amine coupling on CMD200 chips; human plasma fibronectin injected, twofold dilution series up to 500 nM, multi-cycle; Biacore T200, 25°C, 30 μL/min, HBS-T; steady-state affinity fits.
Experiment [3] has as its target FbpA-C (Borrelia miyamotoi strain FR64b) (UniProt W5SFZ1). Nature of the experiment: SPR; FbpA-C, FbpB-C or FbpA DA-C immobilised by amine coupling; C1r-CCP2-SP injected, twofold dilution series 0-100 nM, multi-cycle; Biacore T200, 25°C, 30 μL/min; kinetic fits.

For “FbpB-C (from UniProt A0A0U2RP97 264-432) (domain or fragment)”, the IC50 of inhibition of classical pathway complement activation (ELISA-based assay, C4b deposition, normal human serum) in experiment [1] came out at 1900 nM.
As for “FbpA-C (from UniProt W5SFZ1 222-371) (domain or fragment)”, in experiment [1], the IC50 of inhibition of classical pathway complement activation (ELISA-based assay, C4b deposition, normal human serum) was determined as 23 nM and the IC50 of inhibition of classical pathway hemolysis (pre-sensitized sheep erythrocytes, 2% normal human serum) amounted to 220 nM.
In turn, “human fibronectin (from UniProt P02751) (natural protein)” displayed a Kd in experiment [2] of 170 nM.
In experiment [3], C1r-CCP2-SP (domain or fragment) registered a Kd of 0.9 nM, a koff of 0.00031 s⁻¹ and an on-rate constant (kon) of 330000 M⁻¹ s⁻¹.
